In assay [1] the target is Ixodes ricinus cathepsin B, native in gut tissue extract (Ixodes ricinus (endogenous in gut tissue)).
Assay [2] has as its target Ixodes ricinus cathepsin C, native in gut tissue extract (Ixodes ricinus (endogenous in gut tissue)).
Assay [3] deals with Ixodes ricinus cathepsin L1 (Ixodes ricinus).
For assay [4], the target named is Ixodes ricinus cathepsin L3 (Ixodes ricinus).
Assay [5] concerns the target cathepsin L-like activity of I. ricinus gut tissue extract (Ixodes ricinus (endogenous in gut tissue)).
Assay [6] has as its target cathepsins L and B activity of I. ricinus gut tissue extract (Ixodes ricinus (endogenous in gut tissue)).
In assay [7] the target is human cathepsin B (human).
In assay [8] the target is human cathepsin C (human).
Sequence of human cathepsin C (human) (P53634 25-463): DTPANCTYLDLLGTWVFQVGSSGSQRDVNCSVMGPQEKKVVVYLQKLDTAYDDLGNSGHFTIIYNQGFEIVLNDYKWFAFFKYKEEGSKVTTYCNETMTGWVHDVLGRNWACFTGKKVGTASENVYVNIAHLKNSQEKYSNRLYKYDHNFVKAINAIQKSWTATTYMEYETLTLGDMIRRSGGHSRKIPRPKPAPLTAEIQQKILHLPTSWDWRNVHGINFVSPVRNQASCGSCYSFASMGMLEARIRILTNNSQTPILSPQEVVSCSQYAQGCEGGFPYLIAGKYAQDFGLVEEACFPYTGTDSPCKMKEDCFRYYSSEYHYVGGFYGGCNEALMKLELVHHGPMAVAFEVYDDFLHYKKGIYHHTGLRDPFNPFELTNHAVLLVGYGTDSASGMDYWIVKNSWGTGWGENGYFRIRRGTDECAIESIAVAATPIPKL
Assay [9] has as its target T1, human cathepsin H (human).
T1 sequence (P09668 116-335, looked up): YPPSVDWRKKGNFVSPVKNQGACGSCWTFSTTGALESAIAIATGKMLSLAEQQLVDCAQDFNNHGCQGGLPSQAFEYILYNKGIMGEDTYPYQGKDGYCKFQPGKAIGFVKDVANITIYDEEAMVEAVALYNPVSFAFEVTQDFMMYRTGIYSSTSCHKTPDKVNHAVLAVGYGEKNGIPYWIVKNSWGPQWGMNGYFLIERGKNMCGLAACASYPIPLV

Assay [10] deals with T2, human cathepsin K (human) (UniProt P43235).
T2 sequence: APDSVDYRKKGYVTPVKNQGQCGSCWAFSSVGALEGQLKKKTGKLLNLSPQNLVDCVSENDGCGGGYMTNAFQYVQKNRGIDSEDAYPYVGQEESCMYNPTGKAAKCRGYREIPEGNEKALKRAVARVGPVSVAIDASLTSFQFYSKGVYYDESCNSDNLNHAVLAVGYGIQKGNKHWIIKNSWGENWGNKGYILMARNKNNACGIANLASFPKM

Assay [11] has as its target human cathepsin L (human).
The target of assay [12] is human cathepsin S (human) (UniProt P25774).
Sequence of human cathepsin S (human) (P25774 115-331): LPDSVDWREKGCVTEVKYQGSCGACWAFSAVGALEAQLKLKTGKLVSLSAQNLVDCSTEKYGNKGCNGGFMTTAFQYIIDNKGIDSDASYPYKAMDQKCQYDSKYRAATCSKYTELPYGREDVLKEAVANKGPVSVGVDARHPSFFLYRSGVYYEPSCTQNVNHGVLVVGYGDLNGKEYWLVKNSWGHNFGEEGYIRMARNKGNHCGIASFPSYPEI

Sequence of human cathepsin L (human) (P07711 18-333): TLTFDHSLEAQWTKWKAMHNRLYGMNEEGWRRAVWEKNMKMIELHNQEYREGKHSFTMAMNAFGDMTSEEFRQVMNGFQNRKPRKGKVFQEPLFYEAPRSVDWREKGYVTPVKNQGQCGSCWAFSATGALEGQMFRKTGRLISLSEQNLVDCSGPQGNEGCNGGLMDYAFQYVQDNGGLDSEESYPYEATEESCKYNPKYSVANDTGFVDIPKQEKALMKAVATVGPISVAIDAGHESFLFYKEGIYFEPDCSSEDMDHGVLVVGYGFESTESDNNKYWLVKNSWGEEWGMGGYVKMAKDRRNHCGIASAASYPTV

B1: mialostatin (natural protein)
chain: GSASRSKRALVGGWKTQDPTNPKFENLAHYAVSTQVEGREYYDTVLELLEVQTQIVAGVNYKLKFTTTQSTCKIETGVEYSKELCQPKTNKVEAVCTSIIYTVPWQNIKRVLSYHCDAPNDV
As to B1, in assay [1], the IC50 of inhibition of cathepsin B activity in gut tissue extract (kinetic assay, Z-Arg-Arg-AMC, pH 6.5, with Z-Phe-Phe-DMK, 37 °C) amounted to 12.1 nM. This molecule also showed an IC50 of inhibition of cathepsin C activity in gut tissue extract (kinetic assay, Gly-Arg-AMC, pH 5.5, with E-64, 37 °C) in assay [2] of 91.7 nM. Also, the IC50 of inhibition of protease activity (kinetic assay, 0.1 nM IrCL1, Z-Phe-Arg-AMC, pH 4.5, 37 °C) in [3] is 71 pM. In addition, in assay [4], the IC50 of inhibition of protease activity (kinetic assay, 20 pM IrCL3, Z-Phe-Arg-AMC, pH 4.5, 37 °C) was 0.39 nM. This molecule showed an IC50 of inhibition of cathepsin L activity in gut tissue extract (kinetic assay, Z-Phe-Arg-AMC, pH 4.5, with CA-074, 37 °C) in assay [5] of 0.18 nM. In assay [6], this molecule came in with an IC50 of inhibition of cathepsins L and B activity in gut tissue extract (kinetic assay, Z-Phe-Arg-AMC, pH 5.0, 37 °C) of 3.1 nM. In [7], this molecule returned an IC50 of inhibition of protease activity (kinetic assay, 35 pM cathepsin B, Z-Leu-Arg-AMC, pH 5.5, 37 °C) of 9 nM. The same molecule displayed an IC50 of inhibition of protease activity (kinetic assay, 0.5 nM cathepsin C, Gly-Arg-AMC, pH 5.5, 37 °C) in assay [8] of 2.1 nM. In addition, in [9], the IC50 of inhibition of protease activity (kinetic assay, 20 nM cathepsin H, Z-Leu-Arg-AMC, pH 6.8, 37 °C) is 24 nM. The molecule further came in with an IC50 of inhibition of protease activity (kinetic assay, 5 nM cathepsin K, Z-Leu-Arg-AMC, pH 5.5, 37 °C) in assay [10] of 9.7 nM. In [11], this molecule yielded an IC50 of inhibition of protease activity (kinetic assay, 33 pM cathepsin L, Z-Leu-Arg-AMC, pH 5.5, 37 °C) of 0.38 nM. In [12], the IC50 of inhibition of protease activity (kinetic assay, 350 pM cathepsin S, Z-Val-Val-Arg-AMC, pH 5.5, 37 °C) is 2.2 nM.
